The record followed here is PMC3841102, “Activation of Smurf E3 Ligase Promoted by Smoothened Regulates Hedgehog Signaling through Targeting Patched Turnover” (PLoS Biology, 2013).

Series [1] concerns the molecule itself. Briefly: native gel or EMSA; lysates of S2 cells transfected for 48 h; native polyacrylamide gel and Western blot. In general terms: In EMSA bound probe runs differently from free probe, usually more slowly.
Series [2] deals with T1, His:Smurf protein (full length Drosophila Smurf) (Drosophila, UniProt Q9V853 1-1061).
T1 construct: Smurf E3 ligase, Drosophila, full length; Vector pET28a; also called Smurf in pET28a; source: E. coli, purified (Ni Sepharose)
T1 sequence (looked up): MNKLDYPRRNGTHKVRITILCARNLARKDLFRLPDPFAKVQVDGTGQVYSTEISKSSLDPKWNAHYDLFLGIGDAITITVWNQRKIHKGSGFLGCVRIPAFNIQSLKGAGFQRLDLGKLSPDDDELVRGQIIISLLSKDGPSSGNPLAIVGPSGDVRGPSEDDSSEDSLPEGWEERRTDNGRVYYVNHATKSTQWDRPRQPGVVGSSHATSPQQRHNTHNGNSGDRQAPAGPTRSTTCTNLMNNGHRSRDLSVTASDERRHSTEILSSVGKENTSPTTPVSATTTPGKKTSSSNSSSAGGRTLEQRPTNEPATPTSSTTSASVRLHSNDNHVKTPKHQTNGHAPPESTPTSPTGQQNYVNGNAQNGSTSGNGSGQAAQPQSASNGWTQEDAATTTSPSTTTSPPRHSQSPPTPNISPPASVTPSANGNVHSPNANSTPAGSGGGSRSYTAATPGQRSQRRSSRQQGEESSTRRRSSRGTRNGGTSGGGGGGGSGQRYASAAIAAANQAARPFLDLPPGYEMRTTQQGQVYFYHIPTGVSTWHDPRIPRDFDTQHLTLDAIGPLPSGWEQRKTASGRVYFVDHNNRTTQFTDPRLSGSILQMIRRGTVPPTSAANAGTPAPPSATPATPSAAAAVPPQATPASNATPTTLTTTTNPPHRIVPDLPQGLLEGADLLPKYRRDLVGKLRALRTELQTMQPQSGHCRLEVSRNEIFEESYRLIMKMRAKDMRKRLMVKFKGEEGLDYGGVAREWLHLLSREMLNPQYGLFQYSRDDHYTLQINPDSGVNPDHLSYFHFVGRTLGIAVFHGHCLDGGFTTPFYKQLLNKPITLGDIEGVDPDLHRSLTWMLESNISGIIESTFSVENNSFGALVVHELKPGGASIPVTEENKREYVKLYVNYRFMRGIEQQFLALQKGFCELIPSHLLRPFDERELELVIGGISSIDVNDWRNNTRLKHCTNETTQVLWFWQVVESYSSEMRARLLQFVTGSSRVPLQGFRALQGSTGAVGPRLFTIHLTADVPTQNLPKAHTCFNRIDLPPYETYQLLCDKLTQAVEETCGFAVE
Nature of the series: pull-down; GST fusion protein loaded glutathione beads incubated with 200 ng purified His:Smurf; 50 mM Tris-Cl pH 8.0, 200 mM NaCl, 1 mM EDTA, 1% NP-40, 2% BSA, 10 mM DTT, 1 mM PMSF; 4°C, 1 h; Western blot. As to conditions: both partners purified.

B1: Ptc^CTD (C-terminal tail of Ptc) expressed in S2 cells (domain or fragment, Drosophila, UniProt P18502 1101-1286, looked up)
chain: ILLSMVGPEAELVPLEHPDRISTPSPLPVRSSKRSGKSYVVQGSRSSRGSCQKSHHHHHKDLNDPSLTTITEEPQSWKSSNSSIQMPNDWTYQPREQRPASYAAPPPAYHKAAAQQHHQHQGPPTTPPPPFPTAYPPELQSIVVQPEVTVETTHSDSNTTKVTATANIKVELAMPGRAVRSYNFTS
notes: Patched (Ptc), Drosophila, C-terminal tail; also called C-tail of Ptc; Ptc C-tail; source: S2 cells, transfected, in lysate
In general, stoichiometry N refers to a count of units in the complex or per binding partner. For the molecule B1, the “stoichiometry N” value in series [1] was found to be 3.

B2: Ptc^CTD with the K1261R mutation, in S2 cells (domain or fragment, Drosophila, UniProt P18502 1101-1286, looked up)
chain: ILLSMVGPEAELVPLEHPDRISTPSPLPVRSSKRSGKSYVVQGSRSSRGSCQKSHHHHHKDLNDPSLTTITEEPQSWKSSNSSIQMPNDWTYQPREQRPASYAAPPPAYHKAAAQQHHQHQGPPTTPPPPFPTAYPPELQSIVVQPEVTVETTHSDSNTTRVTATANIKVELAMPGRAVRSYNFTS
notes: Patched (Ptc), Drosophila, C-terminal domain with K1261R; source: S2 cells, transfected, in lysate
For the molecule B2, the “stoichiometry N” value in series [1] was 3.

B3: GST:Flag:Ptc^CTD fusion protein (domain or fragment, Drosophila, UniProt P18502 1101-1286, looked up)
chain: ILLSMVGPEAELVPLEHPDRISTPSPLPVRSSKRSGKSYVVQGSRSSRGSCQKSHHHHHKDLNDPSLTTITEEPQSWKSSNSSIQMPNDWTYQPREQRPASYAAPPPAYHKAAAQQHHQHQGPPTTPPPPFPTAYPPELQSIVVQPEVTVETTHSDSNTTKVTATANIKVELAMPGRAVRSYNFTS
notes: Patched (Ptc), Drosophila, C-terminal domain, residues 1101-1286; Vector pGEX4T-1; also called Flag tagged Ptc^CTD (1101-1286 a.a) in pGEX4T-1; source: E. coli, purified (glutathione agarose beads, batch)
Regarding B3, the binding result in series [2] is on record as “binds”.
